Several values for one entry are separate records, joined by “and”; a condition that tells them apart may be missing. Equal values may be shown once. Where only a bound is given, the exact number is not on record here.

Test [1] addresses PsaA receptor on Detroit 562 human nasopharyngeal epithelial cells (human). Put plainly: homologous competitor P4 in solution against P4-coated fluospheres on Detroit 562 cells.
Test [2] has the same target. As to the kind of experiment: coated fluospheres at 1:50 dilution on Detroit 562 cells.
Test [3] shares this target. As to the kind of experiment: competition of PsaA-coated bead adherence to Detroit 562 cells by P4 in solution.
The target is the same in test [4]. As to the kind of experiment: competition of PsaA-coated bead adherence to Detroit 562 cells by P4 in solution (second of the three doses, printed 100 µg).
Test [5] has the same target. Put plainly: coated fluorospheres on Detroit 562 cells, 1640±210 beads/well.
For test [6] the target is unchanged. As to the kind of experiment: competitor P4 in solution against P4-coated beads on Detroit 562 cells.
For test [7] the target is unchanged. As to the kind of experiment: time course on Detroit 562 cells, n=6, 140 min.
For test [8] the target is unchanged. Put plainly: adherence of unsaturated rPsaA fluospheres to Detroit 562 cells with P3 peptide added.
For test [9] the target is unchanged. Put plainly: cold chase with non-fluorescent PsaA-coated spheres against PsaA-coated fluospheres on Detroit 562 cells.
The target is the same in test [10]. As to the kind of experiment: 2,600 fluospheres/well on Detroit 562 cells, day 60 after labeling.
Test [11] has the same target. Put plainly: 2,600 fluospheres/well on Detroit 562 cells, day 1 after labeling.
Test [12] has the same target. As to the kind of experiment: time course on Detroit 562 cells, n=6, 180 min.
Test [13] shares this target. Put plainly: time course on Detroit 562 cells, n=6, 20 min.

Take “P4 peptide (PsaA amino acid residues 251 to 278 with DD changed to KR)”: the percent reduction in adherence in test [1] is 89.4% and 87.6% and 88.9%; in test [6] it was 89.4% and 87.6% and 88.9%. In test [2], this substance showed an adherence signal (FU) greater than 100000 FU. The results for the % reduction in FU in test [3] and in test [4] were 23% and 68%, respectively. The substance also gave an adherence (mean FU) in [5] of 19300 FU.

Take “recombinant pneumococcal surface adhesin A (rPsaA) of Streptococcus pneumoniae (from UniProt P0A4G2 20-309) (ligand)”: the figures for the mean adherence signal (FU) in [7], in [12] and in [13] were 16600 FU, 17500 FU and 2320 FU, respectively. Also, in test [8], the fold enhancement of binding by P3 peptide was less than 2.5 fold. Also, the % inhibition of adherence of PsaA-coated fluospheres in test [9] was less than 31%. Moreover, the mean adherence (FU) was determined as 30600 FU in [10] and 30100 FU in [11]. In [2], this substance yielded an adherence signal (FU) greater than 100000 FU.
